Results: PMC9400078

Key:
[1] = biological target: CelTOS N-terminal truncation mutant (Gly51–Asp196) (Plasmodium vivax); test: SEC
[2] = biological target: CelTOS double mutant Lys122Asp, Leu164Asp (Plasmodium vivax); test: SEC

Work on “CelTOS N-terminal truncation mutant (Gly51–Asp196) (domain or fragment)” yielded a stoichiometry N [1] of 2.

Substance “CelTOS double mutant Lys122Asp, Leu164Asp (natural protein)” has a stoichiometry N [2] of 2.
